# Measurements taken from article PMC6220998.
# Assays:
# [1] = target: KAT1 K+ channel of Arabidopsis, myc-tagged (Arabidopsis) (UniProt Q39128)
# [2] = target: KAT1 K+ channel of Arabidopsis, myc-tagged (Arabidopsis) (UniProt Q39128); remark: listed apart in the source
# UniProt Q39128, sequence (Q39128 whole entry): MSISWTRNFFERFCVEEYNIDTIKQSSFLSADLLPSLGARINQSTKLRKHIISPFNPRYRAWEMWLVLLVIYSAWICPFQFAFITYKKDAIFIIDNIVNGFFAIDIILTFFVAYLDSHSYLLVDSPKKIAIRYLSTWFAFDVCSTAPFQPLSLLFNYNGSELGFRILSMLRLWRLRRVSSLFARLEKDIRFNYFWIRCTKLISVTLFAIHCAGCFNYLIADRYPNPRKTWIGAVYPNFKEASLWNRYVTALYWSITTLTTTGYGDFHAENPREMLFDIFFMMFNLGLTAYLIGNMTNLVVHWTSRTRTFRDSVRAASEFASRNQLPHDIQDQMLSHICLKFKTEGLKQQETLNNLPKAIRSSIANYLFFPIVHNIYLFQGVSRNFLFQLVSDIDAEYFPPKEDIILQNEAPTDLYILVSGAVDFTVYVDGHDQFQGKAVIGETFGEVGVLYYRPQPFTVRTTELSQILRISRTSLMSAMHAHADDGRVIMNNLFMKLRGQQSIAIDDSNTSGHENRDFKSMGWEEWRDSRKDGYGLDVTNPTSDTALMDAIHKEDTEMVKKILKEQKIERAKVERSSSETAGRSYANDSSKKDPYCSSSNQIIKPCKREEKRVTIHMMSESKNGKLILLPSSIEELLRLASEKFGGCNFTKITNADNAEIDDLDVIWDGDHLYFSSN
Substance,amount of SYP121^ΔC in the oocyte that gives a near-maximal effect on KAT1 gating (roughly 0.4 ng per oocyte) [1] [µM],single-channel open probability Po of KAT1 at −120 mV after adding 1 μM SYP121^ΔC to inside-out patches [2] [%]
"SYP121^ΔC, cytosolic SNARE domain, expressed in oocytes (domain or fragment)",0.14,–
"SYP121^ΔC, soluble cytosolic domain, recombinant (domain or fragment)",–,3.4
